B1: RapF [B. subtilis] / PhrC [B. subtilis] (parent)
chain 1: MTGVISSSSIGEKINEWYMYIRRFSIPDAEYLRREIKQELDQMEEDQDLHLYYSLMEFRHNLMLEYLEPLEKMRIEEQPRLSDLLLEIDKKQARLTGLLEYYFNFFRGMYELDQREYLSAIKFFKKAESKLIFVKDRIEKAEFFFKMSESYYYMKQTYFSMDYARQAYEIYKEHEAYNIRLLQCHSLFATNFLDLKQYEDAISHFQKAYSMAEAEKQPQLMGRTLYNIGLCKNSQSQYEDAIPYFKRAIAVFEESNILPSLPQAYFLITQIHYKLGKIDKAHEYHSKGMAYSQKAGDVIYLSEFEFLKSLYLSGPDEEAIQGFFDFLESKMLYADLEDFAIDVAKYYHERKNFQKASAYFLKVEQVRQLIQGGVSLYEIEV
chain 2: ERGMT
B2: RapF [B. subtilis] / PhrF [B. subtilis] (parent)
chain 1: B1 chain 1
chain 2: QRGMI

Variants of: B1
Assay: thermal-shift assay (Sypro orange fluorescence)
Settings: with PhrC [B. subtilis], printed Tm without peptide: mutant 53.4 °C, wild type 49.5 °C

screen value [°C] | Variant
52.3 | chain 1 MTGVISSSSIGEKINEWYMYIRRFSIPDAEYLRREIKQELDQMEEDQDLHLYYSLMEFRHNLMLEYLEPLEKMRIEEQPRLSDLLLEIDKKQARLTGLLEYYFNFFRGMYELDQREYLSAIKFFKKAESKLIFVKDRIEKAEFFFKMSESYYYMKQTYFSMDYARQAYEIYKEHEAYNIRLLQCHSLFATNFLALKQYEDAISHFQKAYSMAEAEKQPQLMGRTLYNIGLCKNSQSQYEDAIPYFKRAIAVFEESNILPSLPQAYFLITQIHYKLGKIDKAHEYHSKGMAYSQKAGDVIYLSEFEFLKSLYLSGPDEEAIQGFFDFLESKMLYADLEDFAIDVAKYYHERKNFQKASAYFLKVEQVRQLIQGGVSLYEIEV [chain 1 D194A]

Same assay, conditions: with PhrC [B. subtilis], printed Tm without peptide: mutant 50.1 °C, wild type 49.5 °C

screen value [°C] | Variant
49.2 | chain 1 MTGVISSSSIGEKINEWYMYIRRFSIPDAEYLRREIKQELDQMEEDQDLHLYYSLMEFRHNLMLEYLEPLEKMRIEEQPRLSDLLLEIDKKQARLTGLLEYYFNFFRGMYELDQREYLSAIKFFKKAESKLIFVKDRIEKAEFFFKMSESYYYMKQTYFSMDYARQAYEIYKEHEAYNIRLLQCHSLFATNFLDLKQYEDAISHFQKAYSMAEAEKQPQLMGRTLYAIGLCKNSQSQYEDAIPYFKRAIAVFEESNILPSLPQAYFLITQIHYKLGKIDKAHEYHSKGMAYSQKAGDVIYLSEFEFLKSLYLSGPDEEAIQGFFDFLESKMLYADLEDFAIDVAKYYHERKNFQKASAYFLKVEQVRQLIQGGVSLYEIEV [chain 1 N227A]

Same assay, conditions: with PhrC [B. subtilis], printed Tm without peptide: mutant 51.3 °C, wild type 49.5 °C

screen value [°C] | Variant
53.8 | chain 1 MTGVISSSSIGEKINEWYMYIRRFSIPDAEYLRREIKQELDQMEEDQDLHLYYSLMEFRHNLMLEYLEPLEKMRIEEQPRLSDLLLEIDKKQARLTGLLEYYFNFFRGMYELDQREYLSAIKFFKKAESKLIFVKDRIEKAEFFFKMSESYYYMKQTYFSMDYARQAYEIYKEHEAYNIRLLQCHSLFATNFLDLKQYEDAISHFQKAYSMAEAEKQPQLMGRTLYNIGLCKNSQSQYEDAIPYFKRAIAVFEESNILPSLPQAYFLITQIHYKLGKIDKAHEYHSKGMAYSQKAGDVIYLSAFEFLKSLYLSGPDEEAIQGFFDFLESKMLYADLEDFAIDVAKYYHERKNFQKASAYFLKVEQVRQLIQGGVSLYEIEV [chain 1 E303A]

Variants of: B2
Assay: thermal-shift assay (Sypro orange fluorescence)
Settings: with PhrF [B. subtilis], printed Tm without peptide: mutant 50.1 °C, wild type 49.5 °C

screen value [°C] | Variant
49.2 | chain 1 MTGVISSSSIGEKINEWYMYIRRFSIPDAEYLRREIKQELDQMEEDQDLHLYYSLMEFRHNLMLEYLEPLEKMRIEEQPRLSDLLLEIDKKQARLTGLLEYYFNFFRGMYELDQREYLSAIKFFKKAESKLIFVKDRIEKAEFFFKMSESYYYMKQTYFSMDYARQAYEIYKEHEAYNIRLLQCHSLFATNFLDLKQYEDAISHFQKAYSMAEAEKQPQLMGRTLYAIGLCKNSQSQYEDAIPYFKRAIAVFEESNILPSLPQAYFLITQIHYKLGKIDKAHEYHSKGMAYSQKAGDVIYLSEFEFLKSLYLSGPDEEAIQGFFDFLESKMLYADLEDFAIDVAKYYHERKNFQKASAYFLKVEQVRQLIQGGVSLYEIEV [chain 1 N227A]

Same assay, conditions: with PhrF [B. subtilis], printed Tm without peptide: mutant 53.4 °C, wild type 49.5 °C

screen value [°C] | Variant
53.3 | chain 1 MTGVISSSSIGEKINEWYMYIRRFSIPDAEYLRREIKQELDQMEEDQDLHLYYSLMEFRHNLMLEYLEPLEKMRIEEQPRLSDLLLEIDKKQARLTGLLEYYFNFFRGMYELDQREYLSAIKFFKKAESKLIFVKDRIEKAEFFFKMSESYYYMKQTYFSMDYARQAYEIYKEHEAYNIRLLQCHSLFATNFLALKQYEDAISHFQKAYSMAEAEKQPQLMGRTLYNIGLCKNSQSQYEDAIPYFKRAIAVFEESNILPSLPQAYFLITQIHYKLGKIDKAHEYHSKGMAYSQKAGDVIYLSEFEFLKSLYLSGPDEEAIQGFFDFLESKMLYADLEDFAIDVAKYYHERKNFQKASAYFLKVEQVRQLIQGGVSLYEIEV [chain 1 D194A]
